# Laboratory results reported in article doi:10.1101/2024.10.04.616518.
# Assays:
# [1] = molecular target: ixochymostatin (Ixodes scapularis); assay: SPR
# [2] = molecular target: bovine pancreatic chymotrypsin (bovine); assay: enzyme inhibition kinetics
# Chain of ixochymostatin (natural protein) (B7PCV3 21-91): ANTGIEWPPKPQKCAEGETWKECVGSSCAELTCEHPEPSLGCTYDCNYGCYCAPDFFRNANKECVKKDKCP
# Chain of ixochymostatin (Ixodes scapularis) (B7PCV3 21-91): as above
substance,measurement,setting,value
bovine pancreatic chymotrypsin (enzyme),Kd,[1],0.076 nM
same,koff,[1],1.2e-05 s⁻¹
same,kon,[1],160000 M⁻¹ s⁻¹
ixochymostatin (natural protein),Ki,[2],0.14 nM
same,Ki^app (Morrison equation),[2],0.81 nM
same,"apparent Ki (Ki^app), from IC50 against protease concentration",[2],16 nM
